Test results as given in paper PMC3204800.
One block for each molecule: values may come before it.

Columns and labels:
[1] = target: Third plant homeodomain (PHD3) finger of MLL, residues 1565-1627 (human) (UniProt Q03164); assay: ITC
Cyp33 RRM domain = Cyp33 RRM domain (human, UniProt Q9UNP9 1-90); assay: NMR
Cyp33 RRM domain, sequence (Q9UNP9 1-90): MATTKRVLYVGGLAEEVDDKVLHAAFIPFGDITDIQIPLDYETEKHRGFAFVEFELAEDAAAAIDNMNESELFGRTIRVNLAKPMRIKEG

Third plant homeodomain (PHD3) finger of MLL, residues 1565-1627 (human), sequence (Q03164 1565-1627): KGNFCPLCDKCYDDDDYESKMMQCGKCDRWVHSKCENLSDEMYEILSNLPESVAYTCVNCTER

Molecule: Cyp33 RRM domain L39A mutant (from UniProt Q9UNP9 1-90) (domain or fragment)
fold reduction of affinity against the wild type [1]: 10 fold

Molecule: AAUAAA (ssRNA) [AAUAAA RNA]
Kd (Cyp33 RRM domain): 198 ± 11 µM

Now from value to molecule:

fold reduction of affinity against the wild type [1]: 35 fold
Molecule: Cyp33 RRM domain F49A mutant (from UniProt Q9UNP9 1-90) (domain or fragment)

Kd [1]: 1.9 µM | dH [1]: -10 kcal
Molecule: RRM domain of human Cyclophilin 33 (Cyp33), residues 1-90 (from UniProt Q9UNP9 1-90) (domain or fragment)
